The text below walks through data of the DeepSol protein solubility set.

This data set is described as follows: soluble on expression in E. coli; label from the status in PepcDB or PDB records.
Turning to “NEAPIDMHGGKSAKIERQSVENSAQKENSKSAILERLKRLREYSKDHLKAFQRLQVQDFDGRIKPLDTISIEYIHKILKKDDFQGLNAMQVLLGIMFFPNDWRSIKMIYTSTKALRKLIGTPLDESRIAFRDAFDSRGYKLKNLVEEVNQKSPNARNELDKDVLKVDERINLVYTLFSAQFLRIFPSDKTTAWLSPIEAISSPNKEISSVATEFLKNIFSGFDDALKTNQWDKVEKTLKDLSIYQKEHAKNLYLSSSKVDSEIFLNHTNFFNRLT”, the “soluble on expression in E. coli” value is listed as “not soluble”. The entry for “NEHSKWMILDRVRFTLDGLECDKIGVGYEAYRNQPNFCSAPYGSCLGNQLWNFWEYDKRRIDNSQLPLYIVEGRFQRINQHPNAGAHTFSVGVTEDLNTNLLIELMADDIEYVYQRSPAKIIDIRVPTFEALSQVGIANVTTKNIGKLESSYSLTFKCSSGISPVEEQLYTMKPDEVIARSFELRSTTDQAAMHQCEAILKASDFSELDREGYRFSTAATVYNNGAQIGPTNDHKKGGFWDSIKALWRNLIDFLTGRLCWTKCPRLFDFGCHI” is “not soluble”; for “NGEVEVPKTELEEIQQQCNQVTDDSLESTRRMLNMCEESKEAGIRTLVMLDEQGEQLDRIEEGLDQINQDMKDAEKNLEGMEK” it is “soluble”. For “NHELDWSDIKGQHHAKNAMVIAACGGHSILLSGAPGSGKTMMAKRFSTLLPELSETQALECAAINSIRGKLPDFREWRLPPFRAPHHTASPVALVGGGNPPKPGEISLAHHGVLFLDELPEFNRQVLETLREPLESGHICISRAAAQIEFPAKFQLIAAMNPCPCGQWGNSQANCLCTPDRI” the value was “not soluble”.

“NIDSNKKILQEIKRYADEHEERYGRFPKTLIFAVQDLANSSSHADQIVDQARDIFGRGDSFVQKITGKVDRPLQRIREFRNRKEPGIAVTVDLLSTGVDVPDIEYIVFLRSMKSRILFEQMIGRGTRKGEH”: the “soluble on expression in E. coli” value is “not soluble”. Consider “NILKIRCAPVTWPIGMGKNFKGVYHILNDEIYLFEAGGERLPHEFDIIKGIDNPELEQRFPLEIQQLRDEIELVQAASNEFNLDEFLAGELTPVFFGSAINNFGIQEILNSLIDWAPAPKPRDATVRMVEPDEPKFSGFIFKIQANMDPKHRDRIAFLRVCSGKFERGMKMKHLRINREIAASSVVTFMSHDRELVEEAYAGDIIGIPNHGNIQIGDSFSEGEQLAFTGIPFFAPELFRSVRIKNPLKIKQLQKGLQQLGEEGAVQVFKPMSGADLILGAVGVLQFEVVTSRLANEYGVEAVFDSASIWSARWVSCDDKKKLAEFEKANAGNLAIDAGGNLAYLAPNRVNLGLTQERWPDIVFHETREHSVKL”, for which the “soluble on expression in E. coli” value was “not soluble”. For “NIYDVAHDLDKGIRETPEFISLQDAYREVNENADAKAKFERFRDVQVTIQEKQMTGQEIDDETVNVAQQVAQEVQENELIVKLMEKEQAMSTIINDLNRIIMTPLQDLYNVA”, the “soluble on expression in E. coli” value is listed as “not soluble”. For “NLLDDAVKRISEDPPCKCPTKFCVERLSQGRYRVGEKILFIRMLHNKHVMVRVGGGWETFAGYLLKHDPCRMLQISRVDGKTSP” the value was “soluble”; for “NSPITIGLALNKKLNNHWSIETGLQYIYLKSEFTTGKEYRIQKTQKLHYIGIPLRISYRFGNYKQFSFYSTAGLQMEIPIKGTLHTSHVTDSVPINLGYQSLDVPLQWSINASTGVQYHFTPHTSIYIEPTINYYIPDGSSLRTIRKEHPVTFSVPVGIRFSW”, “not soluble”. For “NTITVSELLELIKKEDVIIVDTRSPREFKEETLPGAINIPLFLDDEHALIGKTYKQESREKAIEIATDIVEKSLKRILNEAKKLDRDKLIVVFCARGGMRSQTMALILQLLGFKVKRLIGGFKAFKHAVDK” the value was “not soluble”; for “NTRLLEEIEERRRSERFFHATIDSLTAPVAILNGEGDIVTVNRAWRKFADENGGLHPNHFIGYNYLGLCDNVKGDDAVTASAVARGIRELIAGRINEFHVDYPCHSPDEQRWFQVRVTRLENGSRGRVAVVHENIS”, “not soluble”.

“NTTGGRFVDKDNRKYYVKDDHKAIYWHKIDGKTYYFGDIGEMVVGWQYLEIPGTGYRDNLFDNQPVNEIGLQEKWYYFGQDGALLEQTDKQVLEAKTSENTGKVYGEQYPLSAEKRTYYFDNNYAVKTGWIYEDGNWYYLNKLGNFGDDSYNPLPIGEVAKGWTQDFHVTIDIDRSKPAPWYYLDASGKMLTDWQKVNGKWYYFGSSGSMATGWKYVRGKWYYLDNKNGDMKTGWQYLGNKWYYLRSSGAMVTGWYQDGLTWYYLNAGNGDMKTGWFQVNGKWYYAYSSGALAVNTTVDGYSVNYNGEWVQ”: the “soluble on expression in E. coli” value is recorded as “soluble”. The entry for “PAWWGERAHPISEGGRGSAWFVEASFGNAVLRQYRRGGMIAMLNRDRYFWCGGHRTRSVLEFRLMRELISRGLPVPTPLAACYVRHGVQYRAAILMERLEGVSSLAMCVRGNSKEIHWEQIGRMISRFHREGLDHADLNAHNILLDQAGQCWLIDFDRGALRIPATKWREHNLARLLRSLLKIRGERSVDAVYRDFERLCRAY” is “not soluble”. The entry for “PCCELITNISIPDDKAQNTLSEIEDAISNILGKPVAYIMSNYDYQKNLRFSGSNEGYCFVRLTSIGGINRSNNSLLADKITKILSNHLSVKPRRVYIEFRDCSAQNFAFSGSLFGGSRSHHHHHH” is “soluble”; for “PELPEVETSRRGIEPHLVGATILHAVVRNGRLRWPVSEEIYRLSDQPVLSVQRRAKYLLLELPEGWIIIHLGMSGSLRILPEELPPEKHDHVDLVMSNGKVLRYTDPRRFGAWLWTKELEGHNVLTHLGPEPLSDDFNGEYLHQKCAKKKTAIKPWLMDNKLVVGVGNIYASESLFAAGIHPDRLASSLSLAECELLARVIKAVLLRSIEQGGTTLKDFLQSDGKPGYFAQELQVYGRKGEPCRVCGTPIVATKHAQRATFYCRQCQK” it is “soluble”. Consider “PFSFFHWIFIHPESHTESEISEIITHEETHARQYHSADVLVSEIMCTFCWFNPFVWLMKREVRGNLEYMADHRVLETGHDSKSYQYHLL”, for which the “soluble on expression in E. coli” value is “not soluble”.

For the sequence “PGDESEEQSIKAGMMVCHVFVPGFDDLSEQQQIHMAQAIDHPVRKTAHATEYAMLAGLVLGAVTVSIIRWKNVLVSVCIAVLYASTDELHQLFVPGRSGQVKD”, the “soluble on expression in E. coli” value is “not soluble”. With “PGSSGLPPEKPKNLSCIVNEGKKMRCEWDGGRETHLETNFTLKSEWATHKFADCKAKRDTPTSCTVDYSTVYFVNIEVWVEAENALGKVTSDHINFDPVYKVKPNPPHNLSVINSEELSSILKLTWTNPSIKSVIILKYNIQYRTKDASTWSQIPPEDTASTRSSFTVQDLKPFTEYVFRIRCMKEDGKGYWSDWSEEASGITYEDRPSKEPSFW”, the “soluble on expression in E. coli” value was “soluble”.

In the case of “PIDLITVGSLIELQDSQNPFQYWIVSVIENVGGRLRLRYVGLEDTESYDQWLFYLDYRLRPVGWCQENKYRMDPPSEIYPLKMASEWKCTLEKSLIDAAKFPLPMEVFKDHADL”, the “soluble on expression in E. coli” value is reported as “soluble”. For “PKQVGNAQHLYDNYDLVPAMIAEVNPRDMVVMALVNTNVDPTLPPRWALATRNITAIPGIEGDTRKVGTRIPAVAVTGQRSVGNQDSWDQISPMPIAWATPDSSVIARAESTIPSEQWTTLSKNLNKLDQVRETKFDLLEL” the value was “soluble”; for “PKYTLHYFPLMGRAELCRFVLAAHGEEFTDRVVEMADWPNLKATMYSNAMPVLDIDGTKMSQSMCIARHLAREFGLDGKTSLEKYRVDEITETLQDIFNDVVKIKFAPEAAKEAVQQNYEKSCKRLAPFLEGLLVSNGGGDGFFVGNSMTLADLHCYVALEVPLKHTPELLKDCPKIVALRKRVAECPKIAAYLKKRPVRDF”, “soluble”.

As for “PMSEKQLAEVVERTVTPLMKAQAIPGMAVAVIYEGQPHYFTFGKADVAANKPVTPQTLFELGSISKTFTGVLGGDAIARGEISLGDPVTKYWPELTGKQWQGIRMLDLATYTAGGLPLQVPDEVKDNASLLRFYQNWQPQWKPGTTRLYANASIGLFGALAVKPSGMSYEQAITTRVFKPLKLDHTWINVPKAEEAHYAWGYRDGKAVHVSPGMLDAEAYGVKTNVQDMASWVMVNMKPDSLQDNSLRKGLTLAQSRYWRVGAMYQGLGWEMLNWPVDAKTVVEGSDNKVALAPLPAREVNPPAPPVNASWVHKTGSTGGFGSYVAFIPEKQLGIVMLANKSYPNPARVEAAYRILSAL”, the “soluble on expression in E. coli” value is given as “soluble”. Consider “PPGPCLPPRLQGRPKAKEIQLRWGPPLVDGGSPISCYSVEMSPIEKDEPREVYQGSEVECTVSSLLPGKTYSFRLRAANKMGFGPFSEKCDITTAPG”, for which the “soluble on expression in E. coli” value is given as “soluble”. With “PPHVEYMRRLELADYEPASDSGHIRYYPKGRLVKTLLEQFITRKCIDYGAMEVETPIMYDRNHPTLRRYLERFPARQYIIKGDKREFFLRFAACFGQFLMLSSSTITYRNLPLKIYELTRYSFRKEQRGELVGLRRLRAFTMPDMHTVAKDMEQAKEEFFNQYRLSVEVLREIGLEPEDYEVAVRITKDFYEENREFVHSLVDILKKPILIEMWDHRFFYFVLKFEFNFVDALDKASALSTVQIDVENAERYGITFVDSDGKEKHPYILHCSVSGAVERVMYALLEKAK”, the “soluble on expression in E. coli” value is listed as “not soluble”. In the case of “PPKIRVVVRKRPISKKERERGDDDVVDVLAKNNTVVVNEEKVKVDLTKYLEKHAFKFDESLDENVSNEAVYQLTVGPLVRTLFRNGRASCFAYGQTGSGKTYTMSPLPIRASADIFTFMAQQQYRDISLCVSCFEIYGNKVFDLLNARKKLNILEDGKKKVVVVGLKEFGVDDVDGVKALIEESAKNRSTGSTAANADSSRSHSIMQFALKRAAPAPAGGFRRGEDAPEPRVVGKISFIDLAGSERGADTFDNNRQTRLEGAEINKSLLALKECIRALDSDARHVPFRGSKLTAVLRDSFVGDQARTVMIANISPCSSSVEHTLNTLRYADRVKELRKDKADRT”, the “soluble on expression in E. coli” value is listed as “soluble”.

Turning to “PRHRLLVVGAGQLSRYLCEMAIALDFDVTVSDPRQEYRAGWQVEGVALTTAMPDDMVIAARPDARTAVIALTHDPKLDDLALIDALQTPAFYVGALGSRANHARRVARLREHFGLTPAQLARLRGPAGIY”, the “soluble on expression in E. coli” value is reported as “not soluble”. For “PVDINAATHTIVRGDTVYNISKRYHISQDDFRAWNGMTDNTLSIGQIVKVKPAGYAAPKAAAVKSRPAVPAAAQPPVQSAPVDINAATHTIVRGDTVYNISKRYHISQDDFRAWNGMTDNMLSIGQIVKVKPAGYAAPKTAAVESRPAVPAAVQTPVKPAAQPPVQSAPQPAAPAAENKAVPAPAPQSPAASPSGTRSVGGIVWQRPTQGKVVADF” the value was “not soluble”. For “PVFENNNQRYYESLPFKQLKELKIACSQYGPTAPFTIAMIENLGTQALPPNDWKQTARACLSGGDYLLWKSEFFEQCARIADVNRQQGIQTSYEMLIGEGPYQATDTQLNFLPGAYAQISNAARQAWKRLPSLEHHHHHH” the value was “soluble”; for “QAKPGGKEDSVLYQLMRARVALIYEETPGIAAKRFRAQLVENPKSEPARYGLAIAQIKGGQLNEARESLKPLLEKSPNDITYNLTQIDLDITNNRLADAQQRVDRMLTLYPTSYPLNDVRIDVLLKQNRTAEAEKSLEALLKTRPDDPDIWYVVAETRG”, “not soluble”; for “QCGACGESYAADEFWICCDLCEMWFHGKCVKITPARAEHIKQYKCPSCSNK”, “soluble”.
